Like-named read-outs stand apart in the source and are kept apart here.
Experiments:
[1] = target: T1, Full-length human HER3 extracellular domain (ECD) (human, UniProt P21860 20-643); assay: BIACORE 2000 SPR, mAb captured, HER3 protein as analyte, 25 C
T1 construct: also called human HER3 ECD; HER-3 ECD full length
Description: (§1) Mouse monoclonal antibodies were analysed using rabbit anti-mouse (RAM) IgG (GE Healthcare BR-1008-38) covalently coupled to a BIACORE™ CM5 chip (GE HEalthcare BR-1000-14) by primary amine chemistry (NHS/EDC activated) (GE Healthcare amine coupling kit BR-1000-50). Chimeric and humanized competitor monoclonal antibodies were analyzed using anti-human, Fc specific monoclonal (GE Healthcare BR-1008-39) similarly coupled. Each chip was also prepared with a reference surface to which no capture reagent antibody is coupled. Sensorgrams for cycles run with differing analyte concentrations are acquired for kinetic analysis. A cycle consists of capturing the monoclonal on the surface, a short stabilization period with flowing run buffer followed by binding of a defined concentration of analyte (ECD or sub-domain protein). Injection of analyte for surface binding (3-4 minutes) yields the association part of curve. This is followed by buffer only flow (3-4 minutes) which allows recording of dissociation data.
(§2) The general method for affinity analysis is as follows. First, chips were prepared and tested for reasonance units (RU) captured for several monoclonal antibody concentrations. Kinetic cycles were then run in which monoclonal antibody was captured to a level of approximately 100RU, analyte protein was allowed to bind then dissociate and the surface was regenerated to remove all but covalently coupled protein. RAM chips were regenerated with capture kit supplied 100 mM glycine pH1.7 and anti-human chips with capture kit supplied 3M MgCl₂. […] Several buffer cycles were run prior to analyte protein to ensure cycle consistency and in some experiments a buffer cycle is used a “double reference[.]” Analytes used were human full length HER3 extra cellular domain (ECD), separate sub-domains of the extracellular portion of human HER3 (D1, D2, D3, D4), or combination HER3 domain proteins (D1-2 and D2-3).

[2] = target: T2, Human HER3 ECD domain 1-2 protein (human, UniProt P21860 20-329); assay: as above
T2 construct: also called D1-2; sub-domains 1-2
Description: as §1, §2

[3] = target: T3, Human HER3 ECD domain 2-3 protein (human, UniProt P21860 184-495); assay: as above
T3 construct: also called D2-3; sub-domains 2-3
Description: as §1, §2

Human HER3 ECD domain II [4] = target: T4, Human HER3 ECD domain II (human, UniProt P21860 184-329); assay: as above
T4 construct: also called D2; Domain 2
Description: as §1, §2

[5] = target: T5, Human HER3 ECD domain III (human, UniProt P21860 330-495); assay: DELFIA, plate coated with HER3 Domain III 1ug/ml
T5 construct: also called D3; Domain 3
Description: (§3) Dissociation Enhanced Lanthanide Fluorescence Immunoassay (DELFIA) for detection of the anti-HER3 antibodies to HER3 extracellular domain (ECD) was used. The DELFIA procedures were as follows: white Maxisorp 96-well plates (Nunc #437796) were coated with 100 ul/well of 1 ug/ml HER-3 ECD full length or HER3Domain I, II, III and IV in 0.1M carbonate buffer pH 9.5 overnight at 4° C. These plates were blocked with casein in TBS (Thermo Scientific #37532 lot#JD121074). The neat hybridoma supernatant, or the purified anti-HER3 antibodies diluted in Perkin Elmer #4002-0010 Assay Buffer from 10 ug/ml (or 100 ug/ml) to 0.01 ug/ml, or the PK serum samples with a minimum of 3 dilutions (100 ul/well) were added to the plate. These samples were incubated for 2 hours at room temperature while on a plate shaker or overnight at 4° C. […] The plate was washed 4 times with tris-buffer plus 0.05% tween-20 (Perkin Elmer #4010-0010) on a BIOTEK™ plate washer following each antibody incubation step. 100 ul/well of DELFIA enhancement solution (Perkin Elmer 1244-105) was added for 5 minutes at room temperature. […] Antibody binding was recorded as europium counts per well.

Human HER3 receptor [6] = target: T6, Human HER3 receptor (human, UniProt P21860 20-1342); assay: cell-based or functional assay
Human HER3 receptor [7] = target: T6, Human HER3 receptor; assay: cell-based or functional assay; remark: listed apart in the source
Human HER3 ECD domain II [8] = target: T4, Human HER3 ECD domain II; assay: DELFIA (europium time-resolved fluorescence), plate coated with HER3 Domain II 1ug/ml, antibody titrated 0.001-10 ug/ml
Human HER3 ECD domain IV = target: T7, Human HER3 ECD domain IV (human, UniProt P21860 496-643); assay: DELFIA, plate coated with HER3 Domain IV 1ug/ml
T7 construct: also called D4; sub-domain 4
Description: as §3

[9] = target: T8, Murine HER3 on B16 and B16F10 melanoma cells (murine, UniProt Q61526 20-1339); assay: flow cytometry on B16F10 murine melanoma cells, antibody labelled with a Zenon APC kit [c]
T8 construct: whole, on cells
Text: B16F10 ZENON™ labeling kits: [0530] Mouse IgG1 PE—Invitrogen Z25021 [0531] Mouse IgG1 APC—Invitrogen Z25051 [0532] Mouse IgG2b APC—Invitrogen Z25151 Method: Commercially available anti-human EGFR and HER2 antibodies were provided. A commercially available HER3 antibody represented by the provider to recognizes human HER3 was provided. The murine 15D5 antibody, murine 1D9 antibody (M5.1D9.1F5), murine 24H5 antibody (M5.24H5.C2) antibodies were also provided. These antibodies were labeled with either PE or APC using the ZENON™ labeling kits (Invitrogen). 5×10⁶ B 16, or B16F10, murine melanoma cells were added to flow cytometry tubes containing the labeled anti-HER3 antibodies. Cells and antibodies were incubated for 30 minutes on ice in the dark, washed and resuspended in FACS buffer. Cells were then analyzed on a FACSCANTO™ flow cytometer. Data analysis was performed using […]™ software, developed by BD Biosciences. Cell populations were gated using forward vs. side scatter and histograms of fluorescent intensities were generated.

Human HER3 receptor [10] = target: T6, Human HER3 receptor; assay: cell-based or functional assay; remark: listed apart in the source
Human HER3 ECD domain I = target: T9, Human HER3 ECD domain I (human, UniProt P21860 20-183); assay: DELFIA, plate coated with HER3 Domain I 1ug/ml
T9 construct: also called D1; sub-domain 1
Description: as §3

[11] = target: T1, Full-length human HER3 extracellular …; assay: affinity summary table, method not given
Human HER3 ECD domain II [12] = target: T4, Human HER3 ECD domain II; assay: affinity summary table, method not given
Human HER3 receptor [13] = target: T6, Human HER3 receptor; assay: cell-based or functional assay; remark: listed apart in the source

T1 sequence (P21860 20-643): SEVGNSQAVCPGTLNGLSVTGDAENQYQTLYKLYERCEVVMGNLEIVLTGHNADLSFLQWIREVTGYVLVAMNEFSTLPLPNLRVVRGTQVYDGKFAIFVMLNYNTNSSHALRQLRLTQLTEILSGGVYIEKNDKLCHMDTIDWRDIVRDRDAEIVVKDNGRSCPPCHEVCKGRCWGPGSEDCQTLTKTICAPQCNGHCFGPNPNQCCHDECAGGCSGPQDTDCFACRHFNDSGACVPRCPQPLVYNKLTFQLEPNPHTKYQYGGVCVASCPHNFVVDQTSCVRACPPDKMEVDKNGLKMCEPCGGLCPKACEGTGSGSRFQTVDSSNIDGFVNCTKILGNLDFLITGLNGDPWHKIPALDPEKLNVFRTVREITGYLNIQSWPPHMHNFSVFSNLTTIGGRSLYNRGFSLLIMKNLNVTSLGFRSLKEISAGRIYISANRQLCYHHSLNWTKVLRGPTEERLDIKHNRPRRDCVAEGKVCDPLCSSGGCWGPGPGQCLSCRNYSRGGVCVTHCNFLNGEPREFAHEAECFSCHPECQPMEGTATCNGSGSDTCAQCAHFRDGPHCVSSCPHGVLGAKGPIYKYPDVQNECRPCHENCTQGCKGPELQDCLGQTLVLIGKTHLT
T4 sequence (P21860 184-329): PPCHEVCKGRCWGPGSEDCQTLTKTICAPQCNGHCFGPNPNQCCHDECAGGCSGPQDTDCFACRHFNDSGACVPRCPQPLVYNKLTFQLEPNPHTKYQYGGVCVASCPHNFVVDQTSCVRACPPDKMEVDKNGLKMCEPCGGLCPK
T6 sequence (P21860 20-1342 limits assumed): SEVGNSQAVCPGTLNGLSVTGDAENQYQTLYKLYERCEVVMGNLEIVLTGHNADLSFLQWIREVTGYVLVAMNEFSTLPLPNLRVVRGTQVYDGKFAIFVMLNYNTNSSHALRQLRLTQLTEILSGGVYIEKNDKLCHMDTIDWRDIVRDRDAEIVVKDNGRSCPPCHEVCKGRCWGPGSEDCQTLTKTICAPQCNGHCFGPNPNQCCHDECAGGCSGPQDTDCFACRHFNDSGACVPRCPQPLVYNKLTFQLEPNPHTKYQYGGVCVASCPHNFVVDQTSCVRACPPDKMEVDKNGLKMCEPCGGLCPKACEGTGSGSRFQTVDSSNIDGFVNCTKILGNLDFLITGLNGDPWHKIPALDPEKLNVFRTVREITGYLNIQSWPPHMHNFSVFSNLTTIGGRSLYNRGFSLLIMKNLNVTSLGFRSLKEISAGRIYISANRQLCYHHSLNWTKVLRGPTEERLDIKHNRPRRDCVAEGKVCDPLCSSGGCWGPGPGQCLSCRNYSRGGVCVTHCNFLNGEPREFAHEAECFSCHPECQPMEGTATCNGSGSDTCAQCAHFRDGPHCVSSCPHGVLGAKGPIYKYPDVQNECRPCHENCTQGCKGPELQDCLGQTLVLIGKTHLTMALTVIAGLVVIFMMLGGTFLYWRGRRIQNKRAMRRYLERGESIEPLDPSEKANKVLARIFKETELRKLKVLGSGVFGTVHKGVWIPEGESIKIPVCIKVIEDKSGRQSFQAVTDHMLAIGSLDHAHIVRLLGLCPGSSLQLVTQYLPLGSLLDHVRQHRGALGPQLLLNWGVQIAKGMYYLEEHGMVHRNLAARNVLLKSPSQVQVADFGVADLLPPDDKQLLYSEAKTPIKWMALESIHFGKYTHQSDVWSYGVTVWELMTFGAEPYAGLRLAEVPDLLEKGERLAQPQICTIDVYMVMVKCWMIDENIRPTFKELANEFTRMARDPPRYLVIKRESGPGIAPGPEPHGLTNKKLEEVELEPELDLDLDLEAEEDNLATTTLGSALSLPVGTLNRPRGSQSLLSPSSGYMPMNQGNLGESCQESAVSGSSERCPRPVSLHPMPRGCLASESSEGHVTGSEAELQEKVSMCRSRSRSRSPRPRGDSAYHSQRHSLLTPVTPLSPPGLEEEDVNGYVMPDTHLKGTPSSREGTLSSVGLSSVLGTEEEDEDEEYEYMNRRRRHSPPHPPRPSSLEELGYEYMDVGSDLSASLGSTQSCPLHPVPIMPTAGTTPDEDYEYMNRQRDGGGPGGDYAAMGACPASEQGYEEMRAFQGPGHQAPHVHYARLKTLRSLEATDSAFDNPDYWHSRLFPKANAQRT
T2 sequence (P21860 20-329): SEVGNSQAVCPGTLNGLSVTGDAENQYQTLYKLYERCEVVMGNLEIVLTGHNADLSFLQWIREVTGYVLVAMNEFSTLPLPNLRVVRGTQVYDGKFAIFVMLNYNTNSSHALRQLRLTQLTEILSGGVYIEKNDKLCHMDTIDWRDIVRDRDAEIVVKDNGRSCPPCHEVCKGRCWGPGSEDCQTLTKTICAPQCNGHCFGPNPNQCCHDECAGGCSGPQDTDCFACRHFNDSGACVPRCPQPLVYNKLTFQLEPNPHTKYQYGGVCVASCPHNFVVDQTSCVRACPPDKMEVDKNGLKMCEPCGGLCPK
T3 sequence (P21860 184-495): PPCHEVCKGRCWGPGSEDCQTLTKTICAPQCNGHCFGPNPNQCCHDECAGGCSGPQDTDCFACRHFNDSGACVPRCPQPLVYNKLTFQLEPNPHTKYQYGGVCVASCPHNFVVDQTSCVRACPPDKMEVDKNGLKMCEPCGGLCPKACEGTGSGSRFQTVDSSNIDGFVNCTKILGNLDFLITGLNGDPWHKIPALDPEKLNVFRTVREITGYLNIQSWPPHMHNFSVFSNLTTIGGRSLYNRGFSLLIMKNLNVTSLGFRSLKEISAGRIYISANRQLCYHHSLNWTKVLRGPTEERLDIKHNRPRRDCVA
T7 sequence (P21860 496-643): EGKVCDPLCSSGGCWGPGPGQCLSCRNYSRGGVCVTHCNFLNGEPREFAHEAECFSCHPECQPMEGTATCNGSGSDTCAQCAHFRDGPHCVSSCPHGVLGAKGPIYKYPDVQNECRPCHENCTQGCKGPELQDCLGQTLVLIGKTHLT
T5 sequence (P21860 330-495): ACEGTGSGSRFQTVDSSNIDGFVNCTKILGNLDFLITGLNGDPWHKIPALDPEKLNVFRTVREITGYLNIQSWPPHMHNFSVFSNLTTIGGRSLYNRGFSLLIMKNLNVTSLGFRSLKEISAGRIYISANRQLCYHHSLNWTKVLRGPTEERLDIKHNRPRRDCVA
T9 sequence (P21860 20-183): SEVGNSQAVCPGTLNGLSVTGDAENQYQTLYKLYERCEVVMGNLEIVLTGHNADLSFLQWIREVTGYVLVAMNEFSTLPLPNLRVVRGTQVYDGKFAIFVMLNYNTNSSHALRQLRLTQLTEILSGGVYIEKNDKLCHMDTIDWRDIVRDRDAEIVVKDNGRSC
T8 sequence (Q61526 20-1339, one chain of several): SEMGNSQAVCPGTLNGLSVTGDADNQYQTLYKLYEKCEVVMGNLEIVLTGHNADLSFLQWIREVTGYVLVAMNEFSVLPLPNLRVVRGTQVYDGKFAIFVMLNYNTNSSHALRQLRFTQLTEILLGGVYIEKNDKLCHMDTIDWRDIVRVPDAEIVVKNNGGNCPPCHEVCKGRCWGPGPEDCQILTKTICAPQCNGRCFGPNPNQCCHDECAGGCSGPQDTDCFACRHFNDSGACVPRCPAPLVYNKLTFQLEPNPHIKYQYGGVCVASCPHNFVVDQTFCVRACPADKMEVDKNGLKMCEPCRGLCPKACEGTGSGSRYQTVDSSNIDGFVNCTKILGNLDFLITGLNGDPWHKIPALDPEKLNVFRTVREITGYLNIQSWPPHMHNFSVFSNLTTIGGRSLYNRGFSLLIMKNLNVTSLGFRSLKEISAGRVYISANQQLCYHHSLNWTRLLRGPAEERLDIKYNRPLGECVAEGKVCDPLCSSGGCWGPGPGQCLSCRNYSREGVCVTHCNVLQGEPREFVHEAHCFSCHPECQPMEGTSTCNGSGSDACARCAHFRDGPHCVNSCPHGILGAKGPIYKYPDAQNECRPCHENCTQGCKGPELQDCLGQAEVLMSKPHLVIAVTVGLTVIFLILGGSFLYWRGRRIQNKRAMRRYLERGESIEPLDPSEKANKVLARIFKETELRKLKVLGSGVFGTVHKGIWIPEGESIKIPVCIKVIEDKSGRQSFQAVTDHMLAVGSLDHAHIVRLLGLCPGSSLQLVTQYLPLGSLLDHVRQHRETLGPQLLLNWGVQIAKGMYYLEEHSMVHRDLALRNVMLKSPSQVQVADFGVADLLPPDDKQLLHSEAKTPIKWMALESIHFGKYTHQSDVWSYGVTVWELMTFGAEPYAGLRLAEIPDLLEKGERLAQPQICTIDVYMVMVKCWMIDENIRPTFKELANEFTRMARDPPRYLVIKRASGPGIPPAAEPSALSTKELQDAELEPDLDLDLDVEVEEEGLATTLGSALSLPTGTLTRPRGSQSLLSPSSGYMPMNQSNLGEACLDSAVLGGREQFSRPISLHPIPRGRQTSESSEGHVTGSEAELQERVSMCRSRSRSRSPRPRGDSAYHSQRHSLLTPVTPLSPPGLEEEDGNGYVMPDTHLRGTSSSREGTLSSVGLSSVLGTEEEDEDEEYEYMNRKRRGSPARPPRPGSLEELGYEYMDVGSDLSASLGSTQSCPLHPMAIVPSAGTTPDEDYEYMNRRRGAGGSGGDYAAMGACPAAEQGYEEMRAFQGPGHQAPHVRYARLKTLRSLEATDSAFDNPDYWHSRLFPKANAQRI

B1: Murine 15D5 antibody (M5.15D5.2A1.1H10) (antibody, IgG1, V domains shown)
VH: EFQLQQSGPELVKPGASVKISCKASGYSFTDYNMNWVKQNNGKSLEWIGGINPNYGTTVYNQKFKGKATLTVDQSSSTAYMQLVSLTSEDSAVYYCARMTTIVPFDYWGQGTTLTVSS
VL: DIQMTQTTFSLSASLGDRVTISCRASQDISNYLNWYQQKPDGTVKLLIYYTSTLHSGVPSRFSGSGSGTDYFLTIRNLEEEDIATYFCQQGYTLPWTFGGGTKLDIK
notes: Mouse monoclonal, IgG1; also called m15D5; M5.15D5.1C1
Kd [1]: 2.32 nM
kon [1]: 41200 M⁻¹ s⁻¹
Kd [2]: 0.17 nM
kon [2]: 345000 M⁻¹ s⁻¹
Kd [3]: 0.06 nM
kon [3]: 1.4e+06 M⁻¹ s⁻¹
Kd (Human HER3 ECD domain II [4]): 0.07 nM
kon (Human HER3 ECD domain II [4]): 1.76e+06 M⁻¹ s⁻¹
binding result [5]: no binding (tested: 10 ug/ml)
Phospho-AKT ELISA IC50, heregulin induced, BxPC3 cells (Human HER3 receptor [6]): 0.0605 mg/L
Phospho-HER3 ELISA IC50, heregulin induced, BT-474 cells (Human HER3 receptor [7]): 0.12 mg/L
Phospho-HER3 ELISA IC50, heregulin induced, BxPC3 cells (Human HER3 receptor [7]): 0.0541 mg/L
Phospho-HER3 ELISA IC50, heregulin induced, CHL-1 cells (Human HER3 receptor [7]): 0.138 mg/L
Phospho-HER3 ELISA IC50, heregulin induced, MCF7 cells (Human HER3 receptor [7]): 0.0593 mg/L
Phospho-HER3 ELISA IC50, heregulin induced, N87 cells (Human HER3 receptor [7]): 0.0533 mg/L
Phospho-HER3 ELISA IC50, heregulin induced, SK-BR-3 cells (Human HER3 receptor [7]): 0.0191 mg/L
EC50 (read off the curve) (Human HER3 ECD domain II [8]): ~0.2 mg/L
binding result (Human HER3 ECD domain IV): no binding (tested: 10 ug/ml)
binding result [9]: binds
Phospho-HER3 ELISA IC50, betacellulin induced, SK-BR-3 cells (Human HER3 receptor [10]): 0.0368 mg/L
Phospho-HER3 ELISA IC50, epidermal growth factor induced, SK-BR-3 cells (Human HER3 receptor [10]): 0.0233 mg/L
Phospho-HER3 ELISA IC50, heregulin induced, SK-BR-3 cells (Human HER3 receptor [10]): 0.0191 mg/L
binding result (Human HER3 ECD domain I): no binding (tested: 10 ug/ml)
Kd [11]: ~2 nM
Kd (Human HER3 ECD domain II [12]): 0.07 nM
Phospho-HER3 … IC50, heregulin induced, CHO EGFR + HER3 (Human HER3 receptor [13]): 0.103 mg/L
Phospho-HER3 … IC50, heregulin induced, CHO HER4 + HER3 (Human HER3 receptor [13]): 0.141 mg/L

— patent publication US20130156779A1 (GlaxoSmithKline, published 2013)
